Target: FANCD2 (human, UniProt Q9BXW9 1-1451)
Test: cryo-EM structure

FANCD2, sequence (Q9BXW9 whole entry): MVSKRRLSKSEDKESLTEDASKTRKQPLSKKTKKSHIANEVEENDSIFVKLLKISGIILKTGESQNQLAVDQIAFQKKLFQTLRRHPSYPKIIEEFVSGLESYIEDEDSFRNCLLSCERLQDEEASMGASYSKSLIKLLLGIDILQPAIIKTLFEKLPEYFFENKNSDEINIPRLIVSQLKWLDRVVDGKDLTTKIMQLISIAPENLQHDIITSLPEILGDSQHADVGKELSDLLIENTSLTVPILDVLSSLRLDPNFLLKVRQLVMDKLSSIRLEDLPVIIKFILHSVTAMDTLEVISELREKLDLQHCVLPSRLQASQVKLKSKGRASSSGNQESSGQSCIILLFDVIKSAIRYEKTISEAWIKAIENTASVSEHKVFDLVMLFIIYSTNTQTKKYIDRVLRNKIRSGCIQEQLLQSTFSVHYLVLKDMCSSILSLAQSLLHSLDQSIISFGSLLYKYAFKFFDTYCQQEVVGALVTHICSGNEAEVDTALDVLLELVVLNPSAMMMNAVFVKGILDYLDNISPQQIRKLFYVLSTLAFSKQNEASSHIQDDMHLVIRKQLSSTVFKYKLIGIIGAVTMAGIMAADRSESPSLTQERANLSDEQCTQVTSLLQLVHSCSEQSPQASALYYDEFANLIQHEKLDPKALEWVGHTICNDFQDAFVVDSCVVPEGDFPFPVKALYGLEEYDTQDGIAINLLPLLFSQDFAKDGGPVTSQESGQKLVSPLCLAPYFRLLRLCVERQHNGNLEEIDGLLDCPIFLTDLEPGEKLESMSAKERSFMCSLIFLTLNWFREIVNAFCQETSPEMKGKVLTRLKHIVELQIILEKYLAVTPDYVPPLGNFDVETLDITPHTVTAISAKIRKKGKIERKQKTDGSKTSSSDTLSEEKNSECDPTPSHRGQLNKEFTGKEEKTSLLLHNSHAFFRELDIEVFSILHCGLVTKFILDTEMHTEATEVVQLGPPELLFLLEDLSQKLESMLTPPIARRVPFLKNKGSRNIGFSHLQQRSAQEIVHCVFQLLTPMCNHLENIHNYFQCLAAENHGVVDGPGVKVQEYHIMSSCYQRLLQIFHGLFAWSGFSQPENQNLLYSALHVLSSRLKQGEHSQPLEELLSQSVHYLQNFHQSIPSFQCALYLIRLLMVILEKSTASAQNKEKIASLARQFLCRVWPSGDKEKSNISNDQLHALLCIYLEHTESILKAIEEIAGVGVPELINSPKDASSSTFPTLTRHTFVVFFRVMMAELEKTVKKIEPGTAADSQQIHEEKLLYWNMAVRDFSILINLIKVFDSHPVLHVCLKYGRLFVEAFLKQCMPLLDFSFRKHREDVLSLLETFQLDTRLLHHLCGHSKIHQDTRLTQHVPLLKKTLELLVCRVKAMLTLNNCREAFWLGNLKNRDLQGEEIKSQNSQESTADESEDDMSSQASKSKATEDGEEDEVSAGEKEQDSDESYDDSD

binding result: binds
B1: ubiquitinated His6-V5-FANCI (natural protein)
chain 1: MDQKILSLAAEKTADKLQEFLQTLREGDLTNLLQNQAVKGKVAGALLRAIFKGSPCSEEAGTLRRRKIYTCCIQLVESGDLQKEIASEIIGLLMLEAHHFPGPLLVELANEFISAVREGSLVNGKSLELLPIILTALATKKENLAYGKGVLSGEECKKQLINTLCSGRWDQQYVIQLTSMFKDVPLTAEEVEFVVEKALSMFSKMNLQEIPPLVYQLLVLSSKGSRKSVLEGIIAFFSALDKQHNEEQSGDELLDVVTVPSGELRHVEGTIILHIVFAIKLDYELGRELVKHLKVGQQGDSNNNLSPFSIALLLSVTRIQRFQDQVLDLLKTSVVKSFKDLQLLQGSKFLQNLVPHRSYVSTMILEVVKNSVHSWDHVTQGLVELGFILMDSYGPKKVLDGKTIETSPSLSRMPNQHACKLGANILLETFKIHEMIRQEILEQVLNRVVTRASSPISHFLDLLSNIVMYAPLVLQSCSSKVTEAFDYLSFLPLQTVQRLLKAVQPLLKVSMSMRDCLILVLRKAMFANQLDARKSAVAGFLLLLKNFKVLGSLSSSQCSQSLSVSQVHVDVHSHYNSVANETFCLEIMDSLRRCLSQQADVRLMLYEGFYDVLRRNSQLANSVMQTLLSQLKQFYEPKPDLLPPLKLEACILTQGDKISLQEPLDYLLCCIQHCLAWYKNTVIPLQQGEEEEEEEEAFYEDLDDILESITNRMIKSELEDFELDKSADFSQSTSIGIKNNICAFLVMGVCEVLIEYNFSISSFSKNRFEDILSLFMCYKKLSDILNEKAGKAKTKMANKTSDSLLSMKFVSSLLTALFRDSIQSHQESLSVLRSSNEFMRYAVNVALQKVQQLKETGHVSGPDGQNPEKIFQNLCDITRVLLWRYTSIPTSVEESGKKEKGKSISLLCLEGLQKIFSAVQQFYQPKIQQFLRALDVTDKEGEEREDADVSVTQRTAFQIRQFQRSLLNLLSSQEEDFNSKEALLLVTVLTSLSKLLEPSSPQFVQMLSWTSKICKENSREDALFCKSLMNLLFSLHVSYKSPVILLRDLSQDIHGHLGDIDQDVEVEKTNHFAIVNLRTAAPTVCLLVLSQAEKVLEEVDWLITKLKGQVSQETLSEEASSQATLPNQPVEKAIIMQLGTLLTFFHELVQTALPSGSCVDTLLKDLCKMYTTLTALVRYYLQVCQSSGGIPKNMEKLVKLSGSHLTPLCYSFISYVQNKSKSLNYTGEKKEKPAAVATAMARVLRETKPIPNLIFAIEQYEKFLIHLSKKSKVNLMQHMKLSTSRDFKIKGNILDMVLREDGEDENEEGTASEHGGQNKEPAKKKRKK
chain 2: […]
